These results are taken from article PMC3409183.

For this data set, the system named is ribosomal protein L5 (TbL5) (Trypanosoma brucei). Put plainly: EMSA. To be noted: EMSA: 10 mM Tris-HCl pH 7.4, 150 mM KCl, 0.1 mM DTT, 0.1 mM EDTA, 0.1% NP-40, 20 min room temperature; filter binding: 10 mM Tris pH 7.4, 1 mM EDTA, 100 mM …. (Mobility shift assays separate free from complexed probe on a gel.)

T. brucei 5S rRNA gave a Kd of 12 nM.

The term Kd denotes a measure of binding affinity in units of concentration. A lower Kd goes with tighter binding.
